This is an account of results in patent publication US20230183379A1 (INSERM INSTITUT NATIONAL DE LA SANT ET DE LA RECHERCHE M …, published 2023).

For assay [1], the target named is T1, transferrin receptor 1 (TfR1), human (human, UniProt P02786 1-760). The experiment in a line: cell-based or functional assay.
Assay [2] addresses T1, transferrin receptor 1 (TfR1), human. The experiment in a line: FACS on Raji cells at 4 °C, anti-human IgG (Fc specific)-FITC.
The target in assay [3] is T2, transferrin receptor 1 (TfR1), mouse (mouse, UniProt Q62351 1-763).
T2 construct: whole, on cells; also called mouse TfR1
The experiment in a line: FACS on mouse P815 cells at 4 °C.

For assay [4], the target named is T1, transferrin receptor 1 (TfR1), human. The assay is described as follows: FACS on Raji cells at 4 °C.
Protocol: All incubation steps were done on ice. Raji cells (5×10^5 cells) were resuspended in 100 μL of FACS buffer [PBS, 1% FBS] containing various concentrations of the primary antibody for 1 h, washed twice with FACS buffer, and then incubated with the suitable fluorescent secondary antibody. After a final wash, cells were analyzed by FACS. The apparent affinity was determined using the GraphPad software.
Assay [5] has the same target. The experiment in a line: FACS on human Raji cells, anti-human IgG1-FITC.
Assay [6] has as its target T2, transferrin receptor 1 (TfR1), mouse. The experiment in a line: FACS on mouse P815 cells, anti-human IgG1-FITC.
Another assay has as its target T3, mouse IL-6 (mouse, UniProt P08505 25-211).
T3 construct: Bought recombinant protein; also called Recombinant mouse IL-6 (Peprotech, 216-16)
T3 sequence (looked up): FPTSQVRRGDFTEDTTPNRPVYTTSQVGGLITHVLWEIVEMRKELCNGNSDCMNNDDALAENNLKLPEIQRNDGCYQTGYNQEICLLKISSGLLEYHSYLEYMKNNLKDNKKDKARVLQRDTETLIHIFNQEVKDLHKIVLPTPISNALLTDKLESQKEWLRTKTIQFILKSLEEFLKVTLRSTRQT
The assay is described as follows: ELISA on adsorbed recombinant mouse IL-6, pH 7.4, 40 nM antibody.

T1 sequence (P02786 whole entry): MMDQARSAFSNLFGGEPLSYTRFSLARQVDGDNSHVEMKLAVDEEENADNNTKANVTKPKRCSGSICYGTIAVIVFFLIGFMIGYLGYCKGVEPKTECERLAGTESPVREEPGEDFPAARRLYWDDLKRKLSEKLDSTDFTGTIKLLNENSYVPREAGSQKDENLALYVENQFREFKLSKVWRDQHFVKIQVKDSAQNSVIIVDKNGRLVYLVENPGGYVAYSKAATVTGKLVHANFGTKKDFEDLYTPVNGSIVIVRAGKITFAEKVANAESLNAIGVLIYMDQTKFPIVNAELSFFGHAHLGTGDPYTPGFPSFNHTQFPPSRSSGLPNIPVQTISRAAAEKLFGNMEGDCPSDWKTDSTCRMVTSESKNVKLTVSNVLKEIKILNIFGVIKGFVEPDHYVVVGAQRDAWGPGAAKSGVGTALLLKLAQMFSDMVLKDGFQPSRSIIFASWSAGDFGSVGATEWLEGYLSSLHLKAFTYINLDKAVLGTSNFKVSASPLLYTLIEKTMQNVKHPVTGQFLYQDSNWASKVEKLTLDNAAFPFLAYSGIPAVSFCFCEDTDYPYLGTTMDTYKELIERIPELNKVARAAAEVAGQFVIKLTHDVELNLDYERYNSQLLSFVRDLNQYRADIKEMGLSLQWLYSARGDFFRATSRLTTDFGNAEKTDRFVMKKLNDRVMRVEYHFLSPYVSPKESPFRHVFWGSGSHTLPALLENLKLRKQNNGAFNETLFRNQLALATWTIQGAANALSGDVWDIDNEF
T2 sequence (Q62351 whole entry): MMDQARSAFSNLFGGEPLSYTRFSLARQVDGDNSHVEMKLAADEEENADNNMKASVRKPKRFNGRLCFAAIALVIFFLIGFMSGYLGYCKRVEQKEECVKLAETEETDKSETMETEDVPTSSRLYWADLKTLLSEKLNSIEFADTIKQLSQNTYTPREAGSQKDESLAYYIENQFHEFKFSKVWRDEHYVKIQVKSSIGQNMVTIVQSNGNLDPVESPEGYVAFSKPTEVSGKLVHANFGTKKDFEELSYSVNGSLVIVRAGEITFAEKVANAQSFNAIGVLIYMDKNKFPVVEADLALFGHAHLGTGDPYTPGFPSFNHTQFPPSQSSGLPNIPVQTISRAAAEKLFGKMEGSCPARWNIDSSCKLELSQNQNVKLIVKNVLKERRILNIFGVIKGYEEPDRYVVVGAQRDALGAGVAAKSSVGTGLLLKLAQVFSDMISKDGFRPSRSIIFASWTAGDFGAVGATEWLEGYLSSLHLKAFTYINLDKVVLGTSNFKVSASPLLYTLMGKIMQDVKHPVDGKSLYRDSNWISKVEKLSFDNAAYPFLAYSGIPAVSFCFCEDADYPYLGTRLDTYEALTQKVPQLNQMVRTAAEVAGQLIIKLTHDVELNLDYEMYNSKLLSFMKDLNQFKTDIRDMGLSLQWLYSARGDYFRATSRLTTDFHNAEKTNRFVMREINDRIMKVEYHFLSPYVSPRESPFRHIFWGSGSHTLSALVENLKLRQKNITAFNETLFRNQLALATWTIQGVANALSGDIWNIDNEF

B1: F12-IgG1 (IgG1 anti-TfR1 F12 antibody) (antibody, V domains shown)
VH: QVQLQESGGGLVQPGGSLRLSCAASGFSFNTYTMHWVRQAPGKGLEWVADIAYDGSTKYYADSVKGRFTISRDNAKNSLYLQMNSLRAEDTAVYYCARDAVAGEGYFDLWGRGTLVTVSS
VL: QSALTQDPAVSVALGQTVRITCQGDSLRSYYASWYQQLPGTAPKLLIYRNNQRPSGVPDRFSGSKSGTSASLAISGLRSEDEADYYCAAWDDSLSAWVFGGGTKLTVLG
notes: Human IgG1; Produced as monoclonal control beside the tetravalent BsAb; also called F12 (anti TfR1 Human IgG1); parental mAb anti-TfR1 F12
For B1, in assay [1], the “viability of Raji cells, 3 days, IC50” value was found to be 0.8 nM; the “viability of XG6 and XG7 cells in 1% FCS, 3 days, IC50 of the combination F12 + VH4” value stood at 1 nM; the “viability of XG6 cells, 5 days, IC50” value was found to be 4 nM. For the same molecule, the EC50 in assay [2] is 1 nM.

B2: H7-scFv2 (50 kD dimeric (scFv)2 H7 antibody) (scFv)
scFv: QVQLQESGGGVVQPGRSLRLSCAASRFTFSSYAMHWVRQAPGKGLEWVAVISYDGSNKYYADSVKGRFTISRDNSKNTLYLQMNSLRAEDTAVYYCARDLSGYGDYPDYWGQGTLVTVSSGGGGSGGGGSGGGGSSELTQDPAVSVALGQTVRITCQGDSLRSYYASWYQQKPGQAPVLVMYGRNERPSGVPDRFSGSKSGTSASLAISGLQPEDEANYYCAGWDDSLTGPVFGGGTKLTVLG
With B2, the “ERY-1 cell viability inhibition, IC50” value in assay [1] was found to be 2 nM.

B3: H7 scFv2-Fc (H7-Fc) (Fc fusion)
chain: QVQLQESGGGVVQPGRSLRLSCAASRFTFSSYAMHWVRQAPGKGLEWVAVISYDGSNKYYADSVKGRFTISRDNSKNTLYLQMNSLRAEDTAVYYCARDLSGYGDYPDYWGQGTLVTVSSGGGGSGGGGSGGGGSSELTQDPAVSVALGQTVRITCQGDSLRSYYASWYQQKPGQAPVLVMYGRNERPSGVPDRFSGSKSGTSASLAISGLQPEDEANYYCAGWDDSLTGPVFGGGTKLTVLG
notes: Bivalent 100 kD (scFv)2-Fc made in HEK-293 T cells; not shown: Fc fragment of human IgG1 (pFUSE-hFc2(IL2ss) vector)
B3 came in with an EC50 in assay [3] of 0.8 nM.

B4: scFv-Fc bispecific antibody (anti-TfR1 scFv / anti-IL-6 scFv, knob into hole Fc) (bispecific antibody)
chain 1: QVQLQESGGGVVQPGRSLRLSCAASRFTFSSYAMHWVRQAPGKGLEWVAVISYDGSNKYYADSVKGRFTISRDNSKNTLYLQMNSLRAEDTAVYYCARDLSGYGDYPDYWGQGTLVTVSSGGGGSGGGGSGGGGSSELTQDPAVSVALGQTVRITCQGDSLRSYYASWYQQKPGQAPVLVMYGRNERPSGVPDRFSGSKSGTSASLAISGLQPEDEANYYCAGWDDSLTGPVFGGGTKLTVLG
chain 2: EVQLVQSGGGVVQPGESLRLSCAASGFTFSSYSMNWVRQAPGKGLEWVSVIYSGGSTYYADSVKGRFTISRDNSKNTLYLQMNSLRAEDTAVYYCAREVYHSSGYDDAFDIWGRGTMVTVSSGGGGSGGGGSGGGGSDIQMTQSPSTLSASIGDRVTITCRASEGIYHWLAWYQQKPGKAPKLLIYKASSLASGAPSRFSGSGSGTDFTLTISSLQPDDFATYYCQQYSNYPLTFGGGTKLEIK
B4 registered an EC50 in assay [4] of 30.1 nM.

B5: H7-scFv (monovalent) (scFv)
scFv: QVQLQESGGGVVQPGRSLRLSCAASRFTFSSYAMHWVRQAPGKGLEWVAVISYDGSNKYYADSVKGRFTISRDNSKNTLYLQMNSLRAEDTAVYYCARDLSGYGDYPDYWGQGTLVTVSSGGGGSGGGGSGGGGSSELTQDPAVSVALGQTVRITCQGDSLRSYYASWYQQKPGQAPVLVMYGRNERPSGVPDRFSGSKSGTSASLAISGLQPEDEANYYCAGWDDSLTGPVFGGGTKLTVLG
B5: in assay [1], the “ERY-1 cell viability inhibition, IC50” value was 200 nM.

B6: G9 scFv2-Fc (Fc fusion)
chain: QVQLVESGGGLVEPGGSLRLSCAASGFTFSNYAINWVRQAPGKGLEWVANIHHDGNGKYYVDSVEGRFTISRDNAKNSLYLQMDSLRAEDTAIYYCARDGYGGYLDLWGQGTLVTVSSGGGGSGGGGSGGGGSSELTQDPAVSVALGQTVRITCQGDSLRSYYASWYQQKPGQAPVLVIYGKNNRPSGIPDRFSGSGSGNTASLTITGAQAEDEADYYCAAWDDSLSGPVFGGGTKVTVLG
notes: Bivalent (scFv)2-Fc; also called G9-Fc; not shown: Fc fragment of human IgG1 (pFUSE-hFc2(IL2ss) vector)
In the case of B6, the binding result in assay [5] is “binds”.

B7: H7-IgG1 (full length human IgG1 anti-TfR1) (antibody, V domains shown)
VH: QVQLQESGGGVVQPGRSLRLSCAASRFTFSSYAMHWVRQAPGKGLEWVAVISYDGSNKYYADSVKGRFTISRDNSKNTLYLQMNSLRAEDTAVYYCARDLSGYGDYPDYWGQGTLVTVSS
VL: SELTQDPAVSVALGQTVRITCQGDSLRSYYASWYQQKPGQAPVLVMYGRNERPSGVPDRFSGSKSGTSASLAISGLQPEDEANYYCAGWDDSLTGPVFGGGTKLTVLG
notes: also called H7-anti-TfR1 IgG1
Regarding B7, the binding result in assay [6] is “no binding”.

B8: F2 scFv2-Fc (Fc fusion)
chain: QVQLQQSGGGVVQPGGSLRLSCAASEFTFSASGMHWVRQAPGKGLEWMAFIAYDGNQKFYADSVKGRFTISRDNSKNTLYLQMDSLRGEDTAVYYCAKEMQREGYFDYWGQGTLVTVSSGGGGSGGGGSGGGGSNFMLTQDPAVSVALGQTVRITCQGDSLRSYYASWYQQKPGQAPVLVIYGKNNRPSGIPDRFSGSKSGNSASLDISGLQSEDEADYYCATWDDNLSGPIFGGGTKVTVLG
notes: Bivalent (scFv)2-Fc; also called F2-Fc; not shown: Fc fragment of human IgG1 (pFUSE-hFc2(IL2ss) vector)
As to B8, the binding result in assay [5] is reported as “binds”.

B9: VH4 anti-IL-6 human IgG1 (antibody, V domains shown)
VH: EVQLVQSGGGVVQPGESLRLSCAASGFTFSSYSMNWVRQAPGKGLEWVSVIYSGGSTYYADSVKGRFTISRDNSKNTLYLQMNSLRAEDTAVYYCAREVYHSSGYDDAFDIWGRGTMVTVSS
VL: DIQMTQSPSTLSASIGDRVTITCRASEGIYHWLAWYQQKPGKAPKLLIYKASSLASGAPSRFSGSGSGTDFTLTISSLQPDDFATYYCQQYSNYPLTFGGGTKLEIK
notes: Human IgG1; also called VH4-IgG1; anti-IL-6 VH4
On to B9, for which the binding result with mouse IL-6 is on record as “binds”.

B10: C32-IgG1 (antibody, V domains shown)
VH: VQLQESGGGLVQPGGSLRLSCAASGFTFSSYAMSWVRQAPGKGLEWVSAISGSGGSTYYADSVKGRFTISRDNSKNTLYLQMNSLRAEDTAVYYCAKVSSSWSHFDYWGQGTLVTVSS
VL: DVVMTQSPSTLSASVGDRVTITCRASQYISNWLAWYQQKPGKAPKLLIYKASSLESGVPSRFSGSGSGTEFTLTISSLQPEDFATYYCQESYNTPLFTFGPGTKLEIKR
notes: Full length human IgG1; also called C32 (IgG1 format)
Turning to B10, the binding result in assay [6] is “no binding”.

B11: H9 scFv2-Fc (Fc fusion)
chain: QVQLAESGGGLVKPGGSLRLSCAASGFTFSDYYMSWIRQAPGKGLEWVSYISTSGSSIYYVDSVKGRFTISRDNAKNSLYLQMDSLRDDDTAVYYCARDLHGDYAFDSWGQGTLVTVSSGGGGSGGGGSGGGGSSELTQDPAVSVALGQTVRITCQGDSLRSYYASWYQQKPGQAPVLVIYGKNNRPSGIPDRFSGSKSGNSASLDISGLQSEDEADYYCATWDDNLSGPIFGGGTKVTVLG
notes: Bivalent (scFv)2-Fc; also called H9-Fc; not shown: Fc fragment of human IgG1 (pFUSE-hFc2(IL2ss) vector)
With B11, the binding result in assay [5] is given as “binds”.

B12: F12 scFv2-Fc (Fc fusion)
chain: QVQLQESGGGLVQPGGSLRLSCAASGFSFNTYTMHWVRQAPGKGLEWVADIAYDGSTKYYADSVKGRFTISRDNAKNSLYLQMNSLRAEDTAVYYCARDAVAGEGYFDLWGRGTLVTVSSGGGGSGGGGSGGGGSQSALTQDPAVSVALGQTVRITCQGDSLRSYYASWYQQLPGTAPKLLIYRNNQRPSGVPDRFSGSKSGTSASLAISGLRSEDEADYYCAAWDDSLSAWVFGGGTKLTVLGA
notes: Bivalent (scFv)2-Fc; also called F12-Fc; not shown: Fc fragment of human IgG1 (pFUSE-hFc2(IL2ss) vector)
As to B12, the binding result in assay [6] and in assay [5] was “binds” throughout.
